For this assay, the target named is Aβ1-40. Description: ELISA, nonbiotinylated peptide on plate.
Chain of Aβ1-40 (peptide, as listed by the source): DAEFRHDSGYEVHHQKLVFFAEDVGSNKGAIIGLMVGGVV

B1: 6G heavy chain mutant variant 7D (N101C) (antibody, V domains shown)
VH: QVQLVQSGAEVKKPGASVKVSCKASGYTFTTYAIHWVRQAPGQGLEWMGFTSPYSGVSNYNQKFKGRVTMTRDTSTSTVYMELSSLRSEDTAVYYCARFDCYDRGYVRDYWGQGTLVTVS
VL: DIVMTQSPDSLAVSLGERATINCRASESVDNDRISFLNWYQQKPGQPPKLLIYAATKQGTGVPDRFSGSGSGTDFTLTISSLQAEDVAVYYCQQSKEFPWSFGGGTKVEIKR
In the case of B1, the A450 ELISA was 0.23 A450.

B2: 6G heavy chain mutant variant 9E (N101R) (antibody, V domains shown)
VH: QVQLVQSGAEVKKPGASVKVSCKASGYTFTTYAIHWVRQAPGQGLEWMGFTSPYSGVSNYNQKFKGRVTMTRDTSTSTVYMELSSLRSEDTAVYYCARFDRYDRGYVRDYWGQGTLVTVS
VL: DIVMTQSPDSLAVSLGERATINCRASESVDNDRISFLNWYQQKPGQPPKLLIYAATKQGTGVPDRFSGSGSGTDFTLTISSLQAEDVAVYYCQQSKEFPWSFGGGTKVEIKR
B2 gave an A450 ELISA of 0.22 A450.

The values above are taken from patent US20110044985A1.
